Assay [1] concerns the target HLA-A*31:01. Briefly: IEDB peptide-MHC binding, purified MHC/competitive/fluorescence; filed as Kd, often an IC50 or EC50 that approximates it; ≥ and ≤ were set here for values at or beyond the usual limits of such assays. Conditions: source organism: Influenza A virus (A/swine/Italy/1513-1/1998(H1N1)).
Assay [2] deals with HLA-B*57:01. The assay is described as above.
The next assay concerns the target HLA-B*27:03. The assay is described as above.
In assay [3] the target is HLA-A*68:02. The assay is described as above. Conditions: source organism: Influenza A virus (A/swine/Italy/1513-1/1998(H1N1)).
The next assay addresses HLA-A*02:19. The description is as above.
The target in assay [4] is HLA-B*18:01. The assay is described as above.
A further assay addresses HLA-B*51:01. The description is as above.
In assay [5] the target is HLA-B*15:17. The description is as above. The conditions noted are these: source organism: Influenza A virus (A/swine/Italy/1513-1/1998(H1N1)).
In assay [6] the target is HLA-B*46:01. The assay is described as above.
Assay [7] concerns the target HLA-A*02:03. The assay is described as above. The conditions noted are these: source organism: Influenza A virus (A/swine/Italy/1513-1/1998(H1N1)).
Another assay has as its target HLA-A*24:03. The description is as above.
Assay [8] deals with HLA-B*15:01. Described as above.
The target in the next assay is HLA-A*02:12. The assay is described as above.
Assay [9] has as its target HLA-A*26:01. Described as above.
In the next assay the target is HLA-B*39:01. The description is as above.
The target of assay [10] is HLA-A*69:01. The assay is described as above. The conditions noted are these: source organism: Influenza A virus (A/swine/Italy/1513-1/1998(H1N1)).
The target of the next assay is HLA-A*02:06. Briefly: IEDB peptide-MHC binding, purified MHC/competitive/radioactivity; filed as Kd, often an IC50 or EC50 that approximates it; ≥ and ≤ were set here for values at or beyond the usual limits of such assays. Conditions: source organism: Vaccinia virus Copenhagen.
For assay [11], the target named is HLA-A*02:03. Described as above. Conditions: source organism: Vaccinia virus Copenhagen.
The next assay has as its target HLA-A*02:02. Described as above. The conditions noted are these: source organism: Vaccinia virus Copenhagen.
Assay [12] deals with HLA-A*02:01. Briefly: IEDB peptide-MHC binding, purified MHC/competitive/fluorescence; filed as Kd, often an IC50 or EC50 that approximates it; ≥ and ≤ were set here for values at or beyond the usual limits of such assays.
The next assay concerns the target HLA-C*05:01. Briefly: IEDB peptide-MHC binding, purified MHC/direct/fluorescence; filed as Kd, often an IC50 or EC50 that approximates it; ≥ and ≤ were set here for values at or beyond the usual limits of such assays.
A further assay deals with HLA-B*07:02. The assay is described as above. The conditions noted are these: source organism: Marburg virus - Musoke, Kenya, 1980.
In assay [13] the target is HLA-A*31:01. The description is as above. Conditions: source organism: Marburg virus - Musoke, Kenya, 1980.
The target of another assay is HLA-A*11:01. The description is as above. Conditions: source organism: Marburg virus - Musoke, Kenya, 1980.
Assay [14] has as its target HLA-B*57:01. Described as above. Conditions: source organism: Marburg virus - Musoke, Kenya, 1980.
Assay [15] deals with HLA-A*02:01. The assay is described as above. Conditions: source organism: Marburg virus - Musoke, Kenya, 1980.
Another assay addresses HLA-B*08:03. Described as above. Conditions: source organism: Ravn virus - Ravn, Kenya, 1987.
Assay [16] deals with HLA-A*68:02. The assay is described as above. Conditions: source organism: Marburg virus - Musoke, Kenya, 1980.
The target of assay [17] is HLA-B*18:01. Described as above. Conditions: source organism: Marburg virus - Musoke, Kenya, 1980.
For assay [18], the target named is HLA-B*15:17. Described as above. The conditions noted are these: source organism: Marburg virus - Musoke, Kenya, 1980.
A further assay concerns the target HLA-B*27:05. Described as above. The conditions noted are these: source organism: Marburg virus - Musoke, Kenya, 1980.
Another assay deals with HLA-A*01:01. The assay is described as above. The conditions noted are these: source organism: Marburg virus - Musoke, Kenya, 1980.
Assay [19] deals with HLA-B*46:01. Described as above. Conditions: source organism: Marburg virus - Musoke, Kenya, 1980.
The target of another assay is HLA-B*40:01. Described as above. The conditions noted are these: source organism: Marburg virus - Musoke, Kenya, 1980.
In the next assay the target is HLA-A*26:02. Described as above. Conditions: source organism: Ravn virus - Ravn, Kenya, 1987.
The target in a further assay is HLA-B*58:01. Described as above. The conditions noted are these: source organism: Marburg virus - Musoke, Kenya, 1980.
Assay [20] deals with HLA-A*03:01. Described as above. The conditions noted are these: source organism: Marburg virus - Musoke, Kenya, 1980.
Assay [21] has as its target HLA-B*15:01. The assay is described as above. Conditions: source organism: Marburg virus - Musoke, Kenya, 1980.
Another assay concerns the target HLA-B*08:01. Described as above. Conditions: source organism: Ravn virus - Ravn, Kenya, 1987.
Assay [22] has as its target HLA-A*26:01. The assay is described as above. The conditions noted are these: source organism: Ravn virus - Ravn, Kenya, 1987.
The target in the next assay is HLA-B*48:01. The description is as above. The conditions noted are these: source organism: Marburg virus - Musoke, Kenya, 1980.
Assay [23] addresses HLA-A*69:01. The description is as above. Conditions: source organism: Marburg virus - Musoke, Kenya, 1980.
The target of a further assay is HLA-A*29:02. Briefly: IEDB peptide-MHC binding, purified MHC/competitive/fluorescence; filed as Kd, often an IC50 or EC50 that approximates it; ≥ and ≤ were set here for values at or beyond the usual limits of such assays. Conditions: source organism: Vibrio parahaemolyticus K5030.
Assay [24] addresses HLA-A*03:01. The assay is described as above. Conditions: source organism: Vibrio parahaemolyticus K5030.
In a further assay the target is HLA-A*02:11. Described as above. The conditions noted are these: source organism: Vibrio parahaemolyticus K5030.
Where [25] appears, read: source organism: Influenza A virus (A/swine/Italy/1513-1/1998(H1N1)).
Setting [26] is: source organism: Vibrio parahaemolyticus K5030.

For the sequence MMWEINGPK, the Kd with HLA-A*31:01 [1] was 0.0751 µM; with HLA-B*57:01 [2] (setting [25]), at least 20 µM; with HLA-B*27:03 (setting [25]), at least 20 µM; in the assay with HLA-A*68:02 [3], at least 20 µM; in the assay with HLA-A*02:19 (setting [25]), at least 20 µM; in the assay with HLA-B*18:01 [4] (setting [25]) it was at least 20 µM. Further, the Kd with HLA-B*51:01 (setting [25]), with HLA-B*15:17 [5], with HLA-B*46:01 [6] (setting [25]), in the assay with HLA-A*02:03 [7], with HLA-A*24:03 (setting [25]) and in the assay with HLA-B*15:01 [8] (setting [25]) was at least 20 µM in each case. Further, the Kd with HLA-A*02:12 (setting [25]), in the assay with HLA-A*26:01 [9] (setting [25]), with HLA-B*39:01 (setting [25]) and with HLA-A*69:01 [10] was at least 20 µM in each case.

FVDTMSIYI: the Kd in the assay with HLA-A*02:06 was found to be 0.0161 µM; with HLA-A*02:03 [11] it was 0.37 µM; with HLA-A*02:02 it was 0.0207 µM; with HLA-A*02:01 [12] (source organism: Variola virus), 0.0004 µM; with HLA-C*05:01 (source organism: Variola virus) it was 0.002 µM.

The sequence FPSVFINPI came in with a Kd with HLA-C*05:01 (source organism: Vaccinia virus Copenhagen) of at least 20 µM.

In the case of QVGIFLICK, the equilibrium dissociation constant (Kd) in the assay with HLA-B*07:02 is at least 20 µM; with HLA-A*31:01 [13], at least 20 µM; with HLA-A*11:01 it was 2.8 µM; with HLA-B*57:01 [14] it was at least 20 µM; with HLA-A*02:01 [15], at least 20 µM; with HLA-B*08:03, at least 20 µM. Also, the Kd with HLA-A*68:02 [16], with HLA-B*18:01 [17], in the assay with HLA-B*15:17 [18], with HLA-B*27:05, in the assay with HLA-A*01:01 and with HLA-B*46:01 [19] was at least 20 µM each time. Further, the Kd with HLA-B*40:01, in the assay with HLA-A*26:02, with HLA-B*58:01, in the assay with HLA-A*03:01 [20], in the assay with HLA-B*15:01 [21] and in the assay with HLA-B*08:01 was at least 20 µM throughout. The Kd with HLA-A*26:01 [22], with HLA-B*48:01 and in the assay with HLA-A*69:01 [23] was at least 20 µM each time.

As to WLGDVWQEK, the Kd with HLA-A*29:02, with HLA-B*57:01 [2] (setting [26]), in the assay with HLA-B*27:03 (setting [26]), with HLA-A*02:01 [12] (setting [26]), in the assay with HLA-A*02:19 (setting [26]) and in the assay with HLA-B*18:01 [4] (setting [26]) was at least 20 µM each time. In addition, the Kd is at least 20 µM with HLA-B*51:01 (setting [26]); at least 20 µM with HLA-B*46:01 [6] (setting [26]); at least 20 µM with HLA-A*24:03 (setting [26]); at least 20 µM with HLA-A*03:01 [24]; at least 20 µM with HLA-B*15:01 [8] (setting [26]); 0.0251 µM with HLA-A*02:11. For the same sequence, the Kd with HLA-A*02:12 (setting [26]), with HLA-A*26:01 [9] (setting [26]) and with HLA-B*39:01 (setting [26]) was at least 20 µM each time.

As usually defined, the Kd is the equilibrium constant for the complex coming apart.

(Values after the Immune Epitope Database (IEDB).)
